In publication PMC4018528 one finds Kd, koff and kon data, which are given here for one substance.

This assay has as its target recombinant His-tagged Sp4E-BP (Strongylocentrotus purpuratus 4E-BP) (Strongylocentrotus purpuratus). The assay can be described thus: SPR; Sp4E-BP immobilised (60 uRIU) by amine coupling on a mixed SAM chip; Flag-MmIF4E1:m7GTP injected from 4.37 uM to 53.9 nM (3-fold dilution series); 25°C; HEPES 50 mM pH 7.7, KCl 150 mM, 0.5% Igepal; flow 25 uL/min; global fit, one step 1:1 reaction (Scrubber 2.0a).

Turning to “Flag-tagged MmIF4E1 (eIF4E1 from Mus musculus), as Flag-MmIF4E1:m7GTP (from UniProt P63073 1-217) (natural protein)”, the Kd stood at 23 nM, the koff is 0.00022 s⁻¹ and the on-rate constant (kon) was found to be 9300 M⁻¹ s⁻¹.

The Kd is the free concentration of one partner at which half of the binding sites on the other are occupied at equilibrium, for simple one-to-one binding. Usually koff stands for the rate constant with which the complex falls apart. As usually defined, the kon is the rate constant with which the complex forms.
